Here are results for 18 sequences from the DeepSol protein solubility set.

The data set is described as follows: soluble on expression in E. coli; label from the status in PepcDB or PDB records.
Regarding “MTIDTTNESDNSPTNSPGLEASARTFSLNASKMVRITDDYADEVFIEQNDVVIEKPRMDPLHVRKLMETWRKAARRARTNYIDPWDEFNIHEYPVQRAKRYRYSAIRKQWTEDIVDVRLHPDSFARGAMRECYRLKKCSKHGTSQDWSSNYVAKRYICQVDRRVLFDDVRLQMDAKLWAEEYNRYNPPKKIDIVQMCVIEMIDVKGSPLYHLEHFIEGKYIKYNSNSGFVSNAARLTPQAFSHFTFERSGHQMMVVDIQGVGDLYTDPQIHTVVGTDYGDGNLGTRGMALFFHSHRCNDICETMDLSNFELSPPEIEATEVAMEVAAKQKKSCIVPPTVFEARRNRISSECVHVEHGISMDQLRKRKTLNQSSTDLSAKSHNEDCVCPECIPVVEQLCEPCSEDEEDEEEDYPRSEKSGNSQKSRRSRMSISTRSSGDESASRPRKCGFVDLNSLRQRHDSFRSSVGTYSMNSSRQTRDTEKDEFWKVLRKQSVPANILSLQLQQMAANLENDEDVPQVTGHQFSVLGQIHIDLSRYHELGRFVEVDSEHKEMLEGSENDARVPIKYDKQSAIFHLDIARKCGILEAVLTSAHIVLGLPHELLKEVTVDDLFPNGFGEQENGIRDLEEFGSDLMEIAAEMGDKGAMLYMAHAYETGQHLGPNRRTDYKKSIDWYQRVVGFQEEEELDSDCGKTTFSSFAPLTRHEILAKMAEMYKEGGYGLNQDFERAYGLFNEAAEAAMEAMNGKLANKYYEKAEMCGE”, the “soluble on expression in E. coli” value is “not soluble”.

Turning to “MSLKLTGEESDTLRKIVLEECLPNQQQNQNPSPCAEVKPNAGYVVLKDLNGPLQYLLMPTYRINGTESPLLTDPSTPNFFWLAWQARDFMSKKYGQPVPDRAVSLAINSRTGHTQNHFHIHISCIRPDVREQLDKNLANISSRWLPLPGGLRGHEYLARRVTESELVQRSPFMMLAEEVPEAREHMGSYGLAMVRQSDNSFVLLATQRNLLTLNRASAEEIQDHECEILREGHHHHHH”, the “soluble on expression in E. coli” value is on record as “soluble”.

Take “MNNVTFEQLQETLYHEKLANGLDVYILPKTGFNKTYATFTTKYGSIDSEFIPLNQKEALHVPDGIAHFLEHKMFEDEEGDVFQLFSKQGASCNAFTSFTRTAYLFSSTTNVKKNVETLLDFVQHPYFTEESVEKEKGIIGQEITMYDDNPDWRNYFGVIENMYEHHPVKIDIAGTIPSISKITKDLLYTCYETFYHPSNMLLFIVGPVDVNEMMTLVKENQGKKEFKPAGDIQRFFPAEPEKVAKPHSVISMSVQTPKCLVGYKEKQPVRQGKDLLVRELGINVLLELMFGQGSKQYEQLDDEGLINDTFSFDHTSEYGFGFTIMGGDTKSPNRLAERIEEMVEAFKEQPLDEAAVKRVIKKKIGGFLRSLNSPEFIANQFTRYEFNKMNLFDVVPTLESLTVEKLTDILHDHFQKERFTVCQVKPEGYEEG”: the “soluble on expression in E. coli” value is given as “not soluble”.

Take “MGSDKIHHHHHHMIFELPDTTTQQISKTLTRLRESGTQVTTGRVLTLIVVTDSESDVAAVTESTNEASREHPSRVIILVVGDKTAENKVDAEVRIGGDAGASEMIIMHLNGPVADKLQYVVTPLLLPDTPIVAWWPGESPKNPSQDPIGRIAQRRITDALYDRDDALEDRVENYHPGDTDMTWARLTQWRGLVASSLDHPPHSEITSVRLTGASGSTSVDLAAGWLARRLKVPVIREVTDAPTVPTDEFGTPLLAIQRLEIVRTTGSIIITIYDAHTLQVEMPESGNAPSLVAIGRRSESDCLSEELRHMDPDLGYQHALSGLSSVKLETV”: the “soluble on expression in E. coli” value is reported as “not soluble”.

In the case of “MGSDKIHHHHHHMSDIDFAKKMSFQRHFSRPKTAESEYAIVRQFESDRGRIINSAAIRRLQQKTQVFPLERNAAVRSRLTHSMEVQQVGRYIAKEILHRLQADERLASLGLADRETPFESLVEMACLMHDIGNPPFGHFGESAINQWFRKLLDSHYLDNESPERVDDCKVPTLRMQQDGLDDLRGQIRQDLSHFEGNAQAIRLVHTLLKLNLTYGQVACILKYTRPAYWHGELPADYNYLMKKPGYYLSEEAFVAKLREELDMGEFHRHPLSYIMEAADDVSYCIADLEDAVEKDILTIEELYDRLRENWGTGAEKDIFAKTIERAYKERERFQWRSHDDQFFMNLRVYTVGQMVPHAALRFIDNLPEIYTGSFNQALLEDDSPQNRLLGIFKHVALKHVFNHHEVEQLELQGDRVIRGLLDIYSPLLDMPYQDFSQLVSADTHKRYPIETRLYHKLSSKHCLAYREAVTELDGVAEPERIIREYYYRARLIQDYISGMTDLYAYDEYRMLMAAD”, the “soluble on expression in E. coli” value is given as “not soluble”.

Consider “MQSEKIAQLKAALQNFSASNSDLFDYALEEEKAKVRKRALLLLDQRARSVYELTNRLISADFDPNIVEYVVEDLVRANLLNDENFSREWVRQRRQRRGKSRQALTRELRDKGIKSEIIADVVGDIQPEDEQDIARELAYKKVRSLKKEPCDYPEYQKVLRRTVGVLARRGFSQSMALEIAREAIDARIDEIRR”, for which the “soluble on expression in E. coli” value was “not soluble”.

For “MAHHHHHHMCLLSFFSLYPLGSFSSGKSNMDTPPISDDDKEVIDRLFASDVPQSLSRHAVLILHYHRTVFGSMVPSNVLLAGCLLYSCKWLSYPSGNSFLKNYFQGMKTSDIVGLEMVLHGTVRQNFMLVEACLRSEMSEIVRLNDVPHNRERIVLVCLNLVRALYRTRWCLLPETAARGALLVACEMCDVHLKSLPESFNTTMVTCAVDYLRSIFAQSRC”, the “soluble on expression in E. coli” value is on record as “not soluble”.

For the sequence “MGSDKIHHHHHHLSISIGSIKRAEAGKNILYRTLVQLSEFFHISIEDLIGDIPVSLWDYVRERPTQLIPCIGRDWELSLLQKLQLSSKTGLKTACVYGMQGLGKTSLVRHFLSRLDQTNWRALYLCSLDQGTFLRRFICTLLDISEIFDDEQLRFRIKMISTSPLVYFYLLRLSGLVLHKSELQAINNLSENRLHEVEVLSVMGLIQNFKQRKVSVLAIDSLHILNEGQLRVIKIFTQNMITQPILIIFSLTDVHRLLYLPDWLQSSNQIQLKPLQAIAMNALVNNEVEMNPCQPMKLAAYKKIVVQRARGNPLILKALIKSKRPDQDFPEEMVNSVQGMLTQLTGIECRLLQFLAACGPCVSIDTLELFNSQLSEPCICLLHRLVRIGFLYPRSECYIFRHILIWEIVKAQMNDSDTASVYSEQHNRLNA”, the “soluble on expression in E. coli” value is “not soluble”.

In the case of “MIHVREFQASDSDVVLHLLDLKDIINSSSFSEKVFQLSESGDFLGLVAEANQSGKHQVVGCAFLRLLETISRGLHCQIEELAIDKAWLHQGVGKSLMETATSWAKERGVGDIYVDSPYASIAVKEGIDSVFVRDEVLEVAQQYEAEKEELQESLKKQYNTTISKLEKEYEAKKQQQDETIHNLQTQLEDATQYLEEQQAEENELLNIDPSSPRNHTGPYPRGRGFWGTLCFPIRKTCGPGSCLRLPSGPASVRGSTDRSN”, the “soluble on expression in E. coli” value is “soluble”.

Regarding “MLKGKTIYVRPLEVTDAEENLGLQSENRDFFEQFSMIRADDYYTVEGQRKRITEYQERLEKDEEYHFGIFTASDDRLIGTVSLFQIIRGALQTAFIGYFLDKAHNGKGIMTEAVRLVVDYAFHELKLHRIEAGVMPRNLGSMRVLEKAGFHKEGIARKNVKINGVWEDHQVLAILNPDDEQLEHHHHHH”, the “soluble on expression in E. coli” value was “not soluble”.

For “MTTHIQKPATGSPLTLLNGVLQVPDQPIIPFIEGDGIGCDVTPAMRSVVDAAVAKVYGGQRQIAWMELFAGQKAVQLYGEGQYLPDETMAAIREYKVAIKGPLETPVGGGIRSLNVAMRQDLDLYVCLRPVRYFEGTPSPMRHPEKVDMVIFRENSEDIYAGIEWPAGSPEAEKIIRFLREEMGVTKIRFPDSSAIGIKPVSTEGSERLIRRTIQYALEHGKPSVSLVHKGNIMKFTEGGFRDWGYALAEREFAGRVFTWRQKAAISKAEGKAAGQKAEQQAIADGKLIIKDVIADNFLQQILLRPEDYSVVATLNLNGDYVSDALAAEVGGIGMAPGANLSDTHAIFEATHGTAPDIAGQGKANPSSLILSAVMMLEHLGWGEAAQAIVAAMNATIAAGEVTGDLAALRGDVPALSTTEFTAALIRRF”, the “soluble on expression in E. coli” value is reported as “soluble”.

With “MAIYTVKALITDPIDEILIKTLREKGIQVDYMPEISKEELLNIIGNYDIIVVRSRTKVTKDVIEKGKKLKIIARAGIGLDNIDTEEAEKRNIKVVYAPGASTDSAVELTIGLMIAAARKMYTSMALAKSGIFKKIEGLELAGKTIGIVGFGRIGTKVGIIANAMGMKVLAYDILDIREKAEKINAKAVSLEELLKNSDVISLHVTVSKDAKPIIDYPQFELMKDNVIIVNTSRAVAVNGKALLDYIKKGKVYAYATDVFWNEPPKEEWELELLKHERVIVTTHIGAQTKEAQKRVAEMTTQNLLNAMKELGMI”, the “soluble on expression in E. coli” value is “soluble”.

As for “MAHHHHHHMDKAKTLEVLRGMKFMQRKEEAKRRAAFEVAQRDEIERQLLHPGTGSSGASGGVSDGGSSALRDRGGGGPVRATVLYDDSFPTHAYSLSRRSFTETLGGGGAIPVAAGLGDTDAHLEGSAVESRVSLKDVGEAQASADAALDDSDVASDEEVADLWGGEDAEGELNDPTAASDRRNQGVKRTRDRRGDRNQHACSDGRFIVKPSLRAPKLPRRLQETVAEQKRQRAEEEGDMNM”, the “soluble on expression in E. coli” value was “soluble”.

Consider “MGSDKIHHHHHHMNAPNSQKILFAITKKSQQDGRSFPTIIRVLKRIGSCAPQGVFQMLHWKPEYLRAFVSERSPQKLFDIAVHLAQDLDMDYLGLNIRIQIATQTPRLYLYSNYPSEWIERYQRDDFYKQDPAANLSHSSTMPVLWTDELYKEAPQFREMACLYGLRHGWTQSLHDQQHNESQISVARPNGPIDEVELYDKAGSVQWLCHTLHAVLGEHHLNALCPPQPKMSERELEVLKWSAAGKTAADVASILSLSQSTVNFHIRSVITKTNAANKAGAIAIAALRGWI”, for which the “soluble on expression in E. coli” value is listed as “not soluble”.

Consider “MAYETFAFVYDEVMDESLYQKWLDFSNRHLPQGTQQILEMACGTGALAVDFAKSGYDVTALDLSEEMLMIASERAFEEEVPVQFVQGNMLDLSEVGQYQAITCFSDSLCYMANRQEVQQVFDEVYQALEEEGTFIFDVHSTYKIDSVFPEYSYHYQTEEFAFLWDSYAGEKEHSIEHFLTFFVKEQETDEHFVRYDELHQERTYSLDNYLRMLESAGFMNVKVYADFTDEAPTETSERWFFVCQRD”, for which the “soluble on expression in E. coli” value is “not soluble”.

Regarding “MSLGTNKDYIEYVHKVYDYLHTIPEKGFEEYKTSEFVLKELEKMGFENINKGVAGTGIIVTIDSKKEGPVFAIRADMDALEFIIDGEKKMIHACGHDGHTSMLLTAAKLIKERNLVKRGKLKILFQPGEEKLYGALRVIDSGLLDDVEEMVGMHLRPGQDCRLGKAIPAMYHCASCIMEFTIKGITCHGSKPHLGVNAVDAVCLAVNAINAIRVNPAIPNSIKVTNISVKGETYNNIPDEAFMALDIRAESNDIIEELKEKAIHAAKTAVSSINAEAVLISKDGVPAAEFDEELVNLAEETIKDVLGADASIGIFKNSGGEDFHYYTQKLKCKTTYIGLGADATPGFHNPNVTFDTKALEYGVDIWCRLVEKRLGEGHHHHHH”, the “soluble on expression in E. coli” value is recorded as “soluble”.

As for “MSSAAQAYARTAQRTASPREIEAQALLKAAKQLQDVVTNWEEKGAIGLQEALLFNRKLWSIFVTEAMRDDNPQSIEIRQNIANIGVFVMSQSSALQIKPEVERLQALIDINRNIAAGLSGRP”, the “soluble on expression in E. coli” value is “not soluble”.

For the sequence “MDTEPIQIDSDDSFDAGAPTSSHTMDRKSIIEKYQKLKEESKKLDDLAVEVRSLFMICKQMEECYTKRIDRIVATYGEIRYLHDGTILLLVTIHNITNQPMIDWVISINPTSIFPNSSSSCCQTINVGSLLPGIRKTFQCQLTCKDPPVLLQLSLLRTYQLGGIVKCFKVKLDPILVTAWNQAQRVERKNMETSFTSTIRLPNSLINLLSGSPDTVISVPQVFKSILNVPNVQEDHIVIKMSSAFVVGATGAVGSELVKLLAESTKFSKVVVLARRPVDGATGDKLIQKTVDFDKLEENAEDIQGVDVAFCALGTTRGKSGADGFYKVDHDYVMSAAKMAKENGVKQFVLVSSVGADASSRFLYPKTKGEVEKEIGELNFEKFVIMRPGLIEAKRPEFRIGEFLGKIVTAPLGLFSNRFSSSATAIAQAMINATQTEETGNQIWNNSKIVEESKKYTA”, the “soluble on expression in E. coli” value is recorded as “not soluble”.
